We go through 40 sequences from the nanobody polyreactivity screen of Harvey et al. (2022).

This data set in a line: yeast display, Sf9 membrane polyspecificity reagent, FACS + sequencing; frameworks hold sequencing errors. In short, it runs like this:
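After 36–48 hours of galactose induction, yeast (Saccharomyces cerevisiae BJ5465) displaying a synthetic nanobody library were stained at 4 °C for 1 hour with 10% biotinylated, detergent-solubilized Sf9 membrane reagent. Streptavidin microbeads enriched the stained cells before FACS sorting into low and high (top ~1%) gates on anti-HA and streptavidin fluorescence. Each clone's polyreactivity label reflects its gate of origin.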
Turning to “QVQLVESGAGVVQAGGSLRLSCAASGFTLHSYAMGWYRQAPGKERELVAAITRSGGGTYYADSVKGRFTISRDNAKKTVYLQMNSLKPEDTAVYYCAARFGGQYQHDYWGQGTQVTVSS”, the “polyreactivity (PSR sort gate)” value is recorded as “high polyreactivity”.
For the sequence “QVQLVESGARLVQAGGSLRLSCAPSGSIFAYNAMGWYRQAPGKERELVAAITKSGGSTYYADSVKGRFTISRDHAKNTVYLQMNSLKPEDTAVDYCNVVVPHSISSHGDYWGQGTQVTVSS”, the “polyreactivity (PSR sort gate)” value is on record as “low polyreactivity”.
As for “QVQLVESGEGLVQAGGRLRLSCAPSGSTFMTYAMGWYRQAPGKERELVAAIRWSGGGTYYADSVKGRFTISRDNAKNTVYLQMNSLKPEDTAVYYGAADHFNYTPGRDYWGQGTQVTVSS”, the “polyreactivity (PSR sort gate)” value is recorded as “low polyreactivity”.
Regarding “QVQLVESGEGLVQAGGSLSLSCAASGRIFYAYVMGWYRQAPGKERELVAAIDRRSTYYADSVKRRFTISRDNAKNTVFFQMNSLKPEDTAVYYCAARSTYSYYIRGYWGLGTQVTVSS”, the “polyreactivity (PSR sort gate)” value was “high polyreactivity”.
Turning to “QVQLVESGGALLQAGGSLRLSCAASGFIFRYYAMGWYRQAPGKERELVAAISESGASTYYADSVKGRFTISRDNAKNSVYLQMNSLKPEVTAVYYCAAKPRNSGPYYFYDLNYWGQGTQVTVSS”, the “polyreactivity (PSR sort gate)” value is on record as “high polyreactivity”.
Consider “QVQLVESGGALVQAGASLRLSCAASGRTFPLYAMGWYRQAPGKEMELVAAISARGSSTYYADSVKGRFTISRDNAKNTVYLQMNSLKAEDNAVYYCAAKRSYPYGSGYWGQGSQVTVSS”, for which the “polyreactivity (PSR sort gate)” value is given as “high polyreactivity”.
For “QVQLVESGGALVQAGCSLRLSCAASGRTFGRNTMGWYRQAPGKERELVAGISRSAGRTYYADSVKGRFTISRDNAKNNVYLQMNSLKAEDTAVYYCAARYQGNYRTDKYDYWGQGTQVTVSS”, the “polyreactivity (PSR sort gate)” value is “high polyreactivity”.
As for “QVQLVESGGALVQAGGSHRLSCAASGSTFATYAMGWYRQAPGNEREFVAVITRGGRTYYADSVKGRFTISRDNAKITVYLQMNSLKPEDTAVYYCAAGSGNFVTRYRYGYWGQGTQVTVSS”, the “polyreactivity (PSR sort gate)” value is on record as “high polyreactivity”.
Take “QVQLVESGGALVQAGGSIRLSCAASGSTFAYYAMGWYRQATGKERELVAAINWRTYYADSVKGRFTISRDNAKNTVYLQMNSLKPEDSAVYYCAAGYYRNKFYYWGQGTQVTVSS”: the “polyreactivity (PSR sort gate)” value is “high polyreactivity”.
As to “QVQLVESGGALVQAGGSLRISCAASGFTFHKNAMGWYRQAPGKERELVAAITYRGGSTYYADSVKGRFTISRDNAKNTVYLQMNSLKPEDTSVYYCAAELRPYITYDGPRKKFYFWGQGTQVTVSS”, the “polyreactivity (PSR sort gate)” value is listed as “high polyreactivity”.
Consider “QVQLVESGGALVQAGGSLRISCAASGFTLQRNTMGWYRQAPGKDREFVAAISVRGGSTYYADSVKGRFTNSRDTAKNTVYLQMNSLKPEDTAVYYCAAVGRPSQYSYPYGYWGQGTQVTVSS”, for which the “polyreactivity (PSR sort gate)” value was “high polyreactivity”.
The result for “QVQLVESGGALVQAGGSLRLSCAASGFIFRYYAMGWYRQAPWKERELVATITGRGGSTYYADSVKGRFTISRDNAMNTVYLQMNSLKPEDTAVYYCAKRGYGRYYAYDYWGQGTQVTVSS” reads “high polyreactivity”.
For the sequence “QVQLVESGGALVQAGGSLRLSCAASGFIICYYAMGSYRQAPGKDRELVAAITSGTSTSYADSVKGRFTISRDNAKNTVYLQMNSLKQEDTAVYYCGADVVRSNFYGTFLYDYDYWGQGTQVTVSS”, the “polyreactivity (PSR sort gate)” value is listed as “low polyreactivity”.
In the case of “QVQLVESGGALVQAGGSLRLSCAASGFTFFRNAMGWYRQAPGKERELVAAISGSGGSTYYADSVKGRFTISRDNAKNTVYLQMNSLKPEDTAVYYCATYSYPAKVREAYNYWGQGTQVTVSS”, the “polyreactivity (PSR sort gate)” value is on record as “low polyreactivity”.
In the case of “QVQLVESGGALVQAGGSLRLSCAASGFTFNVYAMGWYRPAPGKERELVAAITSSGGSTYYADSVKGRFTISRDNAKNTVYLQMNSLIPDDTAVYYCNVVRDWLLYRGSYIVKFDYWGQGTQVTVSS”, the “polyreactivity (PSR sort gate)” value is on record as “high polyreactivity”.
On to “QVQLVESGGALVQAGGSLRLSCAASGFTFRSYVMGWYRQAPGKERELVAAISGSGASTYYADSVKGRFTLSRDNAKNTVYLQMNSLKPEDTAVYYCAATSPYKYWYRYNYWGHGTQVTVSS”, for which the “polyreactivity (PSR sort gate)” value was “high polyreactivity”.
For the sequence “QVQLVESGGALVQAGGSLRLSCAASGFTFTINDMGWYRQAPGKERELVATINDSAGSTYYADSVKGRFTISRDNAKNTVYLQMNSQKPDATAVYYCNAYKATRWFEYVYWGQGTQVTVSS”, the “polyreactivity (PSR sort gate)” value is listed as “low polyreactivity”.
Consider “QVQLVESGGALVQAGGSLRLSCAASGIIFWLYDMGWSRQAPGKERELVAVMTWSGDSTYADSVKGRFTISRDNAKNTVYLQMNSLKPEDNAVYYCAAREYYRKPYDHWGQGTQVTVSS”, for which the “polyreactivity (PSR sort gate)” value is “high polyreactivity”.
Turning to “QVQLVESGGALVQAGGSLRLSCAASGIVFKRYAMGWYRQAPGKEREFVATISYTGGRTYYADSVKGRFTISRDNAKNTVYLQMNSLKPEDTAVYYCATLYRSSKHQPLDYWGQGTQVNVSS”, the “polyreactivity (PSR sort gate)” value is “high polyreactivity”.
Regarding “QVQLVESGGALVQAGGSLRLSCAASGRIFRSYVMGWYRQAPGKERELVATITGGGRTNYADSVKGRFTISRDNAKNTVYLQMTSLKPEDTAVYYCAGVYRWWPFHAFDYWGQGTQVTVSS”, the “polyreactivity (PSR sort gate)” value is recorded as “high polyreactivity”.
As to “QVQLVESGGALVQAGGSLRLSCAASGSIFGEYTMGWYRQAPGKEWELVAAIRSGGDTYYADSVKGRFTLSRDKAKNTVYLQMNSLKPEDTAVYYCNAYWVRHYIMDYWGQGTQVTVSS”, the “polyreactivity (PSR sort gate)” value was “low polyreactivity”.
Take “QVQLVESGGALVQAGGSLRLSCAASGSIFYTNAMGWYRQAPGKERELVAAIRWSGGRTYYADSVKGRFTISRDNAKNTVYLQMNSLKPEDTAVYYCNKVPRTPIPYKYGDWGQGTHVTVSS”: the “polyreactivity (PSR sort gate)” value is “high polyreactivity”.
For the sequence “QVQLVESGGALVQAGGSLRLSCAASGSLFERYAMGWYRQAPVKEREFVATITSGGGRTYYADSVKGRFTISRDNAKNTVYLQMNSLQPEDTAVYYCTAVYRARSYDYWGQGTQVTVSS”, the “polyreactivity (PSR sort gate)” value is given as “high polyreactivity”.
As to “QVQLVESGGALVQAGGSLRLSCAASGSTFEDYAMRSSRQAPGKARELVAAISHIGGSTYYADSVKGRFTISRDNAKNTVYLQMNSLKPEDTAVYYCAKGVYSDLGYWAQGTQVTVSS”, the “polyreactivity (PSR sort gate)” value was “low polyreactivity”.
For “QVQLVESGGALVQAGGSLRLSCAASGSTFFINAMGWYRQAPGKERELVAAITSTDSTTYADSVKGRFTISRDNAKNTVYLQMNSLKPEDTAVYYCAKESIGQDPVSGAWARHEYDYWGQGTQVTVSS”, the “polyreactivity (PSR sort gate)” value was “low polyreactivity”.
Next, “QVQLVESGGALVQAGGSLRLSCAASGSTFRYYAMGWYRQAPGKERELVAAIRWSGDSTYYADSVKGRFTISRDNAKNTVYLQMNSLKPEDTAVYYCAADRQRSHRVGTKGHRVGYWGQGTQVSVSS”: “high polyreactivity”; “QVQLVESGGALVQAGGSLRLSCAASGSTFVQNAMGWYRQAPGKDRELVAAITIGGGSTYYADSVKGRFTISRDNAKNTVYLQMNSLKPEDTAVYYCAVEVGNPQLAYSYDYWGQGTQVTVSS”: “low polyreactivity”.
Consider “QVQLVESGGALVQAGGSLRLSCAASGSTFYWNTMGWYRQAPGKERELVASITRGGSTYYADSVKGRFTISRDNAKNTVYLQMNSLKPEDSAVYYCNVLAWSYGYRYYSWGQGTQVTVSS”, for which the “polyreactivity (PSR sort gate)” value is listed as “high polyreactivity”.
As to “QVQLVESGGALVQAGGSLRLSCAASGTTFHSYPMGWYRQAPGKERELVAAISNGGRTNYADSVNGRFTISRDNAKNTVYLQMNSLKPVDTAVYYCAVRLYRDSSYYYWGQGTQVTVSS”, the “polyreactivity (PSR sort gate)” value was “low polyreactivity”.
Turning to “QVQLVESGGALVQARGSLRLSCSASGSTFFHNFKGWYRQEPGKERELVAAISGSGTRSYYADSVKGRFTISRDNAKNTVYLQMNSLKPEDTAVYYCNVVPLRVPSYLPKYYYWGQGTQVTVSS”, the “polyreactivity (PSR sort gate)” value is recorded as “high polyreactivity”.
In the case of “QVQLVESGGALVQEGGSHRLSCAASRRIFVVYAMGWYRQAPGKERELVAAISKRRGSTYYADSVKGRFTISRYNAKNTVYLQMKSQKPEDTAVYYCAVEGVIWSFWPYEYWGQGTQVTVSS”, the “polyreactivity (PSR sort gate)” value is reported as “high polyreactivity”.
For “QVQLVESGGALVQEGRSLRLSCAASGGTFADYPMGWYRQAPVKERELVAAITNGGSTFYADSVKGRFTSSRDNATNTVYLQMNSLKPDDTAVYYWSAVYLYAYSPYFSAVEMYYWGQGSQVTVSS”, the “polyreactivity (PSR sort gate)” value is listed as “low polyreactivity”.
As for “QVQLVESGGCIVQAGGSLRLSCAASGSIFTYNAMGWYRQAPGKERELVAAISASGGRTYYADSVKGRFTISRDNAKNTVYLQMNSLKPEDTAVYYCAARILVYGLRRFDYWGQGTQVNVSS”, the “polyreactivity (PSR sort gate)” value is given as “high polyreactivity”.
With “QVQLVESGGCIVQAGGSLRLSSPASGRNFTRYGKGWDRQAPRKERELVAAISKSTGNTYYADCVKGRFTISRDFAKNTVYLQMNSLKPEDTAVYYCAASKNKRPPYDYWGQGTQVNVSS”, the “polyreactivity (PSR sort gate)” value is listed as “high polyreactivity”.
For the sequence “QVQLVESGGCLFQEGGSLRLSCSASGRIFNTYAMVWYRQAPGKERELVARISSGGTTYYADSVKGRFTISRDNAKNTVYLQMNSLKPEDTAVYFCNVRAVTPTRSRPFRYDYWGQGTQVTVSS”, the “polyreactivity (PSR sort gate)” value is given as “high polyreactivity”.
The result for “QVQLVESGGCLLQAGGSLSLSCAASGSTSPANTMGWYRQAPGKEREFVAGISRRGGRTYYADSVKGRFTISRDTAKNTVYLQMNSLKPEDTAVYYSATALIVRGPSRYEYWGHGTQVTVSS” reads “high polyreactivity”.
Consider “QVQLVESGGCLVKAGGSLRLSCAASGSIFGHYAMGWYRQAPGKERELVASIDSGGRTNYADSVKGRFTISLDNAKNTVYLQMISLKPEDTGVYYCNTTSVKTRGYGYWGQGSQVTVSS”, for which the “polyreactivity (PSR sort gate)” value is given as “low polyreactivity”.
With “QVQLVESGGCLVKAGGSLRLSSAASGSTFYYYAMGWYRQAPGKERELVAAITVNGGSTYYADSVKGRFTISRDNANNTVYLQMNSLKPGVTAVYYCAADDTYWVYPYTYSTYEYWGQGNQVTVSS”, the “polyreactivity (PSR sort gate)” value was “low polyreactivity”.
Next, “QVQLVESGGCLVQAGASLRLSCAASGSISKSYAMGWYRQAPGKEREFVAAISWRGGSTYADSVKGRFTISRDNAKNTVYLQMNSLKPEDTAVYYCAATNYGTFWGGQSERYDYWGQGSQVTVSS”: “low polyreactivity”; “QVQLVESGGCLVQAGGSHRLSCAASGLTFPKYAMGWYRQAPGKERELVARISYSGASTYYADSVKGRFTISRDNAKNTVYLHMNSLKPEDTAVYYCYARIYRVFYVHFAPYYYWGQGTQVTVSS”: “high polyreactivity”.
